The data set has as its target T1, ArcA-His6 (acetyl phosphate present or absent) (Escherichia coli K1 Rs218 (O18:H7:K1)) (UniProt P0A9Q1).
T1 sequence: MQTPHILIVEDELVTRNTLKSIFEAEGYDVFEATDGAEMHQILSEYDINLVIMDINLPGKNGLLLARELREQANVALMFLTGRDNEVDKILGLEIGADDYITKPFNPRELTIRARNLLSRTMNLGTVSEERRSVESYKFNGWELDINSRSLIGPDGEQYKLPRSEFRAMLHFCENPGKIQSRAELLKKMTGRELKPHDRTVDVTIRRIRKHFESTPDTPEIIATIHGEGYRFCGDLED
As to the kind of experiment: EMSA. The following applies: 10 mM Tris-HCl pH 7.4, 50 mM KCl, 0.1 mM EDTA, 0.2 mM DTT. (In general: In EMSA bound probe runs differently from free probe, usually more slowly.)

In the case of “ACGAACTGTTCACCGCCACTCGCGGTCAGGGCGCACAGCTGAACGGCTACCGTCTGCGCGGCAGCACCGCTCGCGATCTCGACGGTACTATTCTGGCGACCGGCTTCCCGTTCAAAGCAAAACAGTACGCCACTACCTACATCAACATCGTCGGCA (double strand) [suhB gene fragment]”, for the setting “+/- 30 mM acetyl phosphate, 37 C 30 min, 6% PAGE in 0.5x TBE, GelRed stain”, the binding entry is “no binding”.

“ATTTGGTTGTAACACGGCGTATGGCACATGCGTCGTTAGCGGTCTGGGGACGTTAAAGGGGACAATCCACTCCTTGCTCGAGCAGACAAACCAGGTAGCCGGAATGTGCAAGTCAATGAGGATGCTGATAAGACGCCTAACCAGCGTGGCGATTCGGTTTGACGCCTGGGAAGAGACCAGGGTGCAACGATGAGGGCATTTATGGAACCGCGACAAAGTGTGGTGCCGTAACTGGCTAAGTGCTCTCAGC (double strand) [sRNA-17 promoter (PsRNA-17)]”: the binding entry ([…]) is “binds”.
